Results from patent US20080279864A1 (Johns Hopkins, published 2008).
Ends that are not written are not given here.

B1: I-IIB(357-482)-pGBKT7 (I-II loop of α1B fused to the GAL4 binding domain) (other, UniProt P04386 1-147, looked up)
chain: MKLLSSIEQACDICRLKKLKCSKEKPKCAKCLKNNWECRYSPKTKRSPLTRAHLTEVESRLERLEQLFLLIFPREDLDMILKMDSLQDIKALLTGLFVQDNVNKDAVTDRLASVETDMPLTLRQHRISATSSSEESSNKGQRQLTVSGEFAKERERVENRRAFLKLRRQQQIERELNGYLEWIFKAEEVMLAEEDRNAEEKSPLDVLKRAATKKSRNDLIHAEEGEDRFADLCAVGSPFARASLKSGKTESSSYFRRKEKMFRFFIRRMVKAQ
notes: Yeast two-hybrid fusion; GAL4 domain placed first by the vector's design; also called I-IIB (pGBKT7)
B2: NTB-CFP (other)
chain: MVRFGDELGGRYGGPGGGERARGGGAGGAGGPGPGGLQPGQRVLYKQSIAQRARTMALYNPIPVKQNCFTVNRSLFVFSEDNVVRKYAKRITEWP
notes: also called NTB-CFP peptide; NTB (1-95) in FRET; not shown: ECFP fused C-terminal to the test molecule
B3: NTB (56-95)-CFP (other)
chain: MALYNPIPVKQNCFTVNRSLFVFSEDNVVRKYAKRITEWP-{ECFP}
modifications: also: ECFP fused C-terminally, linker not given here
notes: not shown: ECFP fused C-terminal to the test molecule
B4: I-IIB(357-482)-pGADT7 (I-II loop of α1B fused to the GAL4 activation domain) (other, human, UniProt Q00975 357-482, looked up, not shown: large carriers)
chain: GEFAKERERVENRRAFLKLRRQQQIERELNGYLEWIFKAEEVMLAEEDRNAEEKSPLDVLKRAATKKSRNDLIHAEEGEDRFADLCAVGSPFARASLKSGKTESSSYFRRKEKMFRFFIRRMVKAQ
notes: range 357-482; Yeast two-hybrid fusion; GAL4 domain placed first by the vector's design; also called I-IIB (pGADT7)
B5: pGADT7 (empty vector; the isolated GAL4 activating domain itself) (other, UniProt P04386 768-881, looked up)
chain: ANFNQSGNIADSSLSFTFTNSSNGPNLITTQTNSQALSQPIASSNVHDNFMNNEITASKIDDGNNSKPLSPGWTDQTAYNAFGITTGMFNTTTMDDVYNYLFDDEDTPPNPKKE
notes: also called empty pGADT7
B6: NTB(1-95)-pGBKT7 (NH3 terminus of α1B fused to the GAL4 binding domain) (other)
chain: MKLLSSIEQACDICRLKKLKCSKEKPKCAKCLKNNWECRYSPKTKRSPLTRAHLTEVESRLERLEQLFLLIFPREDLDMILKMDSLQDIKALLTGLFVQDNVNKDAVTDRLASVETDMPLTLRQHRISATSSSEESSNKGQRQLTVSMVRFGDELGGRYGGPGGGERARGGGAGGAGGPGPGGLQPGQRVLYKQSIAQRARTMALYNPIPVKQNCFTVNRSLFVFSEDNVVRKYAKRITEWP
notes: Yeast two-hybrid fusion; GAL4 domain placed first by the vector's design; also called NTB (pGBKT7); full-length NTB
B7: I-IIB(357-397)-pGADT7 (other, human, UniProt Q00975 357-397, looked up, not shown: large carriers)
chain: GEFAKERERVENRRAFLKLRRQQQIERELNGYLEWIFKAEE
notes: range 357-397; Yeast two-hybrid fusion; GAL4 domain placed first by the vector's design; Equating this segment with the 'N-terminal third' of the text is an inference; also called N-terminal third of the I-IIB loop; NH3-terminal third of the I-IIB loop
B8: I-IIB(398-435)-pGADT7 (other, human, UniProt Q00975 398-435, looked up, not shown: large carriers)
chain: VMLAEEDRNAEEKSPLDVLKRAATKKSRNDLIHAEEGE
notes: range 398-435; Yeast two-hybrid fusion; GAL4 domain placed first by the vector's design
B9: I-IIB(436-482)-pGADT7 (other, human, UniProt Q00975 436-482, looked up, not shown: large carriers)
chain: DRFADLCAVGSPFARASLKSGKTESSSYFRRKEKMFRFFIRRMVKAQ
notes: range 436-482; Yeast two-hybrid fusion; GAL4 domain placed first by the vector's design
B10: NTB(1-55)-pGBKT7 (other)
chain: MKLLSSIEQACDICRLKKLKCSKEKPKCAKCLKNNWECRYSPKTKRSPLTRAHLTEVESRLERLEQLFLLIFPREDLDMILKMDSLQDIKALLTGLFVQDNVNKDAVTDRLASVETDMPLTLRQHRISATSSSEESSNKGQRQLTVSMVRFGDELGGRYGGPGGGERARGGGAGGAGGPGPGGLQPGQRVLYKQSIAQRART
notes: Yeast two-hybrid fusion; GAL4 domain placed first by the vector's design
B11: NTB (1-44)-CFP (other)
chain: MVRFGDELGGRYGGPGGGERARGGGAGGAGGPGPGGLQPGQRVL-{ECFP}
modifications: also: ECFP fused C-terminally, linker not given here
notes: as for B3
B12: lam-pGBKT7 (lamin C attached to the GAL4 binding domain) (other, UniProt P04386 1-147, looked up)
chain: MKLLSSIEQACDICRLKKLKCSKEKPKCAKCLKNNWECRYSPKTKRSPLTRAHLTEVESRLERLEQLFLLIFPREDLDMILKMDSLQDIKALLTGLFVQDNVNKDAVTDRLASVETDMPLTLRQHRISATSSSEESSNKGQRQLTVSSEEVVSREVSGIKAAYEAELGDARKTLDSVAKERARLQLELSKVREEFKELKARNTKKEGDLIAAQARLKDLEALLNSKEAALSTALSEKRTLEGELHDLRGQVAKLEAALGEAKKQLQDEMLRRVDAENRLQTMKEELDFQKNIYSEELRETKRRHETRLVEID

Tests used:
[1] = biological target: T1, Gβ1 fused to the GAL4 activation domain (Gβ1 in pGADT7) (UniProt P62871 1-340); test: yeast two-hybrid, Gβ1 in pGADT7 against I-IIB in pGBKT7
T1 construct: Yeast two-hybrid fusion; GAL4 domain placed first by the vector's design; also called Gβ1 (pGADT7); Gβ1/pGADT7

[2] = biological target: T2, I-IIB-YFP (human, UniProt Q00975 357-482); test: FRET two-hybrid in HEK293 cells (three-cube FRET and YFP photobleaching)
T2 construct: range 357-482; also called I-IIB in FRET; not shown: EYFP fused C-terminal to the test molecule

[3] = biological target: T2, I-IIB-YFP; test: FRET two-hybrid in HEK293 cells
[4] = biological target: T3, NTC(1-153)-pGBKT7 (NH3 terminus of α1C fused to the GAL4 binding domain) (rabbit, UniProt P04386 1-147; P15381 1-153); test: yeast two-hybrid
T3 construct: Yeast two-hybrid fusion; GAL4 domain placed first by the vector's design; also called NTC (pGBKT7)

[5] = biological target: B12; test: yeast two-hybrid control against lamin C, % of colonies surviving on high stringency plates, mean ± SEM
[6] = biological target: T4, CTA(1763-1928)pGBKT7 (proximal COOH terminus of the P/Q-type α1A subunit fused to the GAL4 binding domain) (UniProt P04386 1-147); test: yeast two-hybrid auto-activation control (empty pGADT7), % of colonies surviving on high stringency plates, mean ± SEM
T4 construct: Yeast two-hybrid fusion; GAL4 domain placed first by the vector's design

[7] = biological target: T3, NTC(1-153)-pGBKT7 (NH3 terminus of α1C …); test: as above
[8] = biological target: T5, NTA(2-100)pGBKT7 (NH3 terminus of the P/Q-type α1A subunit fused to the GAL4 binding domain) (UniProt P04386 1-147); test: as above
T5 construct: Yeast two-hybrid fusion; GAL4 domain placed first by the vector's design

[9] = biological target: T6, NTB(Δ45-55)-pGBKT7 (human, UniProt Q00975 1-95); test: as above
T6 construct: Yeast two-hybrid fusion; GAL4 domain placed first by the vector's design; also called NTB peptide lacking residues 45-55

[10] = biological target: B6; test: as above
[11] = biological target: T7, CTC(1525-1670)pGBKT7 (proximal third of the α1C COOH terminus fused to the GAL4 binding domain) (rabbit, UniProt P04386 1-147; P15381 1525-1670); test: as above
T7 construct: Yeast two-hybrid fusion; GAL4 domain placed first by the vector's design; also called CTC (pGBKT7)

[12] = biological target: T8, NTB(45-95)-pGBKT7 (human, UniProt P04386 1-147 (Saccharomyces cerevisiae entry)); test: as above
T8 construct: Yeast two-hybrid fusion; GAL4 domain placed first by the vector's design

[13] = biological target: B10; test: as above
[14] = biological target: T4, CTA(1763-1928)pGBKT7 (proximal COOH …); test: yeast two-hybrid auto-activation control (empty pGADT7), filter lift β-galactosidase assay, % of colonies turning blue, mean ± SEM
[15] = biological target: T3, NTC(1-153)-pGBKT7 (NH3 terminus of α1C …); test: as above
[16] = biological target: T5, NTA(2-100)pGBKT7 (NH3 terminus of the …); test: as above
[17] = biological target: T6, NTB(Δ45-55)-pGBKT7; test: as above
[18] = biological target: B6; test: as above
[19] = biological target: T7, CTC(1525-1670)pGBKT7 (proximal third of …); test: as above
[20] = biological target: T8, NTB(45-95)-pGBKT7; test: as above
[21] = biological target: B10; test: as above
[22] = biological target: T1, Gβ1 fused to the GAL4 activation domain …; test: yeast two-hybrid
[23] = biological target: T1, Gβ1 fused to the GAL4 activation domain …; test: yeast two-hybrid, background control

T1 sequence (P62871 whole entry, the tested form may be a part): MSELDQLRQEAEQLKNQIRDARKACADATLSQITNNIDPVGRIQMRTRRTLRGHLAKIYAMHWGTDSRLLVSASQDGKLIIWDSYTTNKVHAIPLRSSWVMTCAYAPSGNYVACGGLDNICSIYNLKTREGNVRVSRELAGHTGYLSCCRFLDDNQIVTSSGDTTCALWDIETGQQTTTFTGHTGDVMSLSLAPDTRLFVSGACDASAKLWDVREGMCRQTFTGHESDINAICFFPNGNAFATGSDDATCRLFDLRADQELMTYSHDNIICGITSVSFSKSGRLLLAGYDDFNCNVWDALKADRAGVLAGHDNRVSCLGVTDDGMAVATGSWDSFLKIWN

Binder: B1
- binding result [1]: binds

Binder: B2
- binding result [2]: binds

Binder: B3
- binding result [3]: binds

Binder: B4
- binding result [4]: no binding
- High Stringency (%) [5]: 0.74%

Binder: B5
- High Stringency (%) [6]: 0.1%
- High Stringency (%) [7]: 1%
- High Stringency (%) [8]: 0%
- High Stringency (%) [9]: 0.56%
- High Stringency (%) [10]: 0.34%
- High Stringency (%) [11]: 0%
- High Stringency (%) [12]: 0%
- High Stringency (%) [13]: 3.84%
- Filter Lift Assay (%) [14]: 0%
- Filter Lift Assay (%) [15]: 0%
- Filter Lift Assay (%) [16]: 0.82%
- Filter Lift Assay (%) [17]: 2.5%
- Filter Lift Assay (%) [18]: 0.14%
- Filter Lift Assay (%) [19]: 0%
- Filter Lift Assay (%) [20]: 0%
- Filter Lift Assay (%) [21]: 1.56%

Binder: B6
- binding result [22]: binds

Binder: B7
- High Stringency (%) [5]: 0%

Binder: B8
- High Stringency (%) [5]: 0.04%

Binder: B9
- High Stringency (%) [5]: 0%

Binder: B10
- binding result [22]: binds

Binder: B11
- binding result [3]: no binding

Binder: B12
- binding result [23]: no binding
